Reference: patent US11167035B2, “Insulin compositions and method of making a composition” (Novo Nordisk A/S, priority 2005, dated 2021)

Assay: SEC on Superose 6 PC, insulin self association
Assay type: physicochemical
Conditions: 600 μM insulin
Description: Analysis by size exclusion chromatography (SEC) on a Superose 6 PC column (0.32*30 cm) using isotonic 10 mM tris-buffered saline optionally added 2 mM phenol at 37° C. and pH 7.3, injection volume of 20 μL, flow of 0.05 mL/min and run time 130 min. First reference of Blue dextran (>>5 MDa, KAV 0.0), Thyroglobulin (669 kDa, KAV 0.28), Ferritin (440 kDa, KAV 0.39), Ovalbumin (44.5 kDa, KAV 0.56), Ribonuclease (13.7 kDa, KAV 0.69) and a second reference of Albumin (66 kDa, KAV 0.53), Co(III)insulin-hexamer (35 kDa, KAV 0.61), and monomeric insulin X2 (6 kDa, KAV 0.73). Retention time of blue dextran was 17.9 min (to) and 0.74 min without column (td), and retention time of albumin (HSA) was about 34.1 min, KAV=(t−t0)/(V/f+td−t0) with
KAV area peak1 is measured from KAV=0 to KAV=0.46 (32 min) as relative area % of total area for KAV<0.46 corresponding to self association larger than albumin. For KAV peak 1 about 0.56 (albumin size) integration cut is between albumin size and insulin hexamer size.
For SEC method without phenol in eluent peak1 contain associated forms larger than albumin and peak2 contain dihexameric, hexameric, dimeric and monomeric forms of insulin.
For SEC method including 2 mM phenol in the eluent peak1 contain dihexameric and other larger forms of insulin and peak2 contain hexameric, dimeric and monomeric forms of insulin.
The formulations were studied after storage 2 week at 37C compared to storage at 5C by the SEC method described in example 4 using an eluent with 2 mM phenol. Reference formulations without citrate at 3, 5 and 6 Zn/6ins.deriv. were included.

Substance | Kav 2 Zn peak 1 (2 zinc/hexamer) | Relative area % peak 1 (2 zinc/hexamer) | Kav 6 Zn peak 1 (6 zinc/hexamer) | Relative area % peak 1 (6 zinc/hexamer)
B29Nε-hexadecandioyl-gamma-Glu-(3-(2-{2-[2-(2-amino-ethoxy)-ethoxy]-ethoxy}-ethoxy)-propionyl desB30 human insulin | 0.09 | 79% | 0.06 | 89%
B29Nε-(2-{[(2-Carboxy-ethyl)-(15-carboxy-pentadecanoyl)-amino]-methyl}-benzoyl) desB30 human insulin | 0.16 | 54% | 0.03 | 93%
B29Nε-(4-{[(2-Carboxy-ethyl)-(14-carboxy-tetradecanoyl)-amino]-methyl}-benzoyl) desB30 human insulin | 0.09 | 55% | 0.00 | 96%
B29Nε-(4-{[(2-Carboxy-ethyl)-(15-carboxy-pentadecanoyl)-amino]-methyl}-benzoyl) desB30 human insulin | 0.01 | 84% | 0.00 | 98%
B29Nε-[(5-{[(2-Carboxy-ethyl)-(15-carboxy-pentadecanoyl)-amino]-methyl}-furan-2-carbonyl) desB30 human insulin | 0.02 | 81% | 0.03 | 96%
